How the values were obtained:
[1] = biological target: mini-H3 cluster1 + 2 + 3 + 4 + 5 + 6 + 7-N405A (influenza A virus H3N2, UniProt Q38SQ8 18-566); experiment: FACS
[2] = biological target: mini-H3 cluster1 + 2 + 3 + 4 + 5 + 6 + 7-N405D (influenza A virus H3N2, UniProt Q38SQ8 18-566); experiment: FACS

B1: CR9114 (antibody, V domains shown)
VH: QVQLVQSGAEVKKPGSSVKVSCKSSGGTSNNYAISWVRQAPGQGLDWMGGISPIFGSTAYAQKFQGRVTISADIFSNTAYMELNSLTSEDTAVYFCARHGNYYYYSGMDVWGQGTTVTVSS
VL: SYVLTQPPAVSGTPGQRVTISCSGSDSNIGRRSVNWYQQFPGTAPKLLIYSNDQRPSVVPDRFSGSKSGTSASLAISGLQSEDEAEYYCAAWDDSLKGAVFGGGTQLTVL
Q: What does the source list for B1?
A: binding result [1]: no binding (tested: 5 microgram/ml); binding result [2]: no binding (tested: 5 microgram/ml)

From US20140357845A1 (published 2014)
